Experiment [1] addresses purified tubulin dimer. Description: SPR; VASH1 L226A/C169S.
Experiment [2] has as its target purified tubulin dimer. Description: SPR. For orientation: Surface plasmon resonance follows binding to a sensor surface in real time, without labels.

The values that follow come from paper PMC6937246 (2019).

What is called Kd is a measure of binding affinity in units of concentration. A higher Kd goes with lower affinity.

B1: VASH1-SVBP complex, VASH1 L226A (complex)
chain 1: not shown
chain 2: MDPPARKEKTKVKESVSRVEKAKQKSAQQELKQRQRAEIYALNRVMTELEQQQFDEFCKQMQPPGE
In experiment [1], B1 displayed a Kd of 2100 nM.

B2: VASH1^44–315-SVBP^1–66 heterodimer (complex)
chain 1: not shown
chain 2: MDPPARKEKTKVKESVSRVEKAKQKSAQQELKQRQRAEIYALNRVMTELEQQQFDEFCKQMQPPGE
In experiment [2], B2 had a Kd of 320 nM. In other words, the sub-micromolar range.
